Measured values published in the RNAGym collection of RNA variant scans (doi:10.7554/elife.80360).

B1: Hairpin Ribozyme (parent)
chain: GUCCUCUUUCACGUGCGCGUGAAAGAGAGAAGUGAACCAGAGAAACACACGUUGUGGUAUAUUACCUGGUA

Variants of: B1
Assay: self-cleavage, relative activity (ratio to wild type); higher = more cleavage; co-transcriptional

Variant	self-cleavage
GUCCUCUUUCACGUGCGCGUGAAAGAGACAAGUGAACCAGAGAAACUCACGUUGUGGUAUAUUACCUGGUA	0.093
GUCCUCUUUCACGUGCGCGUGAAAGAGAAAAGUGAACCAGAGAAACACACGUUGUGGUAUAUUACCAGGUA	0.0562
GUCCUCUUUCACGUGCGCGUGAAAGAGAAAAGUGAACCAGAGAAACACACGUUGUGGUAUAUUACCGGGUA	0.0868
GUCCUCUUUCACGUGCGCGUGAAAGAGAAAAGUGAACCAGAGAAACACACGUUGUGGUAUAUUACCCGGUA	0.106
GUCCUCUUUCACGUGCGCGUGAAAGAGAUAAGUGAACCAGAGCAACACACGUUGUGGUAUAUUACCUGGUA	0.0797
GUCCUCUUUCACGUGCGCGUGAAAGAGACAAGUGAACCAGAGAAAUACACGUUGUGGUAUAUUACCUGGUA	0.171
GUCCUCUUUCACGUGCGCGUGAAAGAGACAAGUGAACCAGAGAAAAACACGUUGUGGUAUAUUACCUGGUA	0.111
GUCCUCUUUCACGUGCGCGUGAAAGAGAUAAGUGAACCAGAGAAACACACGUUGUGGUAUGUUACCUGGUA	0.223
GUCCUCUUUCACGUGCGCGUGAAAGAGAUAAGUGAACCAGGGAAACACACGUUGUGGUAUAUUACCUGGUA	0.082
GUCCUCUUUCACGUGCGCGUGAAAGAGAUAAGUGAACCAGUGAAACACACGUUGUGGUAUAUUACCUGGUA	0.116
GUCCUCUUUCACGUGCGCGUGAAAGAGAAAAGUGAACCAGAGAAACACACGUUGUGGUAUAUUACCUGAUA	0.117
GUCCUCUUUCACGUGCGCGUGAAAGAGAAAAGUGAACCAGAGAAACACACGUUGUGGUAUAUUAGCUGGUA	0.158
GUCCUCUUUCACGUGCGCGUGAAAGAGACAAGUGAACCAGAGAUACACACGUUGUGGUAUAUUACCUGGUA	0.18
GUCCUCUUUCACGUGCGCGUGAAAGAGAAAAGUGAACCAGAGAAACACACGUUGUUGUAUAUUACCUGGUA	0.111
GUCCUCUUUCACGUGCGCGUGAAAGAGACAAGUGAACCAGAGAAACACACGUUGUGGUAUAUUAUCUGGUA	0.135
GUCCUCUUUCACGUGCGCGUGAAAGAGACAAGGGAACCAGAGAAACACACGUUGUGGUAUAUUACCUGGUA	0.13
GUCCUCUUUCACGUGCGCGUGAAAGAGACAAGCGAACCAGAGAAACACACGUUGUGGUAUAUUACCUGGUA	0.224
GUCCUCUUUCACGUGCGCGUGAAAGAGACAAGUGAACCAGAGAAACACACCUUGUGGUAUAUUACCUGGUA	0.103
GUCCUCUUUCACGUGCGCGUGAAAGAGACAAGUGAACCAGAGAAACACACAUUGUGGUAUAUUACCUGGUA	0.125
GUCCUCUUUCACGUGCGCGUGAAAGAGACAAGUGAACCAGAGAAACACACGUUGAGGUAUAUUACCUGGUA	0.164
GUCCUCUUUCACGUGCGCGUGAAAGAGACAAGUGAACCAGAGAAACAAACGUUGUGGUAUAUUACCUGGUA	0.136
GUCCUCUUUCACGUGCGCGUGAAAGAGACAAGUGAUCCAGAGAAACACACGUUGUGGUAUAUUACCUGGUA	0.0836
GUCCUCUUUCACGUGCGCGUGAAAGAGACAAGUGACCCAGAGAAACACACGUUGUGGUAUAUUACCUGGUA	0.179
GUCCUCUUUCACGUGCGCGUGAAAGAGAUAAGUGAACCAGAGAAACACACGUUGUGGUCUAUUACCUGGUA	0.0619
GUCCUCUUUCACGUGCGCGUGAAAGAGAUAAGUGAACCAGAGAUACACACGUUGUGGUAUAUUACCUGGUA	0.125
GUCCUCUUUCACGUGCGCGUGAAAGAGAUAAGUGAACCAGAGACACACACGUUGUGGUAUAUUACCUGGUA	0.251

Variant	self-cleavage
GUCCUCUUUCACGUGCGCGUGAAAGAGAAAAGUGAACCAGAGAAACACACGUUGUGGUAUAUUACUUGGUA	0.194
GUCCUCUUUCACGUGCGCGUGAAAGAGAAAAGCGAACCAGAGAAACACACGUUGUGGUAUAUUACCUGGUA	0.0835
GUCCUCUUUCACGUGCGCGUGAAAGAGAAAAGUGAACCAGAGAAACACACGUUGUGGAAUAUUACCUGGUA	0.165
GUCCUCUUUCACGUGCGCGUGAAAGAGAAAAGUGAACCAGAGAAACACACGUUGUGGUAUAUAACCUGGUA	0.124
GUCCUCUUUCACGUGCGCGUGAAAGAGAAAAGUGAACCAGAGAAACACACGUUGUGGUAUAUGACCUGGUA	0.116
GUCCUCUUUCACGUGCGCGUGAAAGAGACAAGUGAACCAGAGAAACACACGUUGUGGUAUAUAACCUGGUA	0.217
GUCCUCUUUCACGUGCGCGUGAAAGAGAAAAUUGAACCAGAGAAACACACGUUGUGGUAUAUUACCUGGUA	0.0536
GUCCUCUUUCACGUGCGCGUGAAAGAGACAAGUGAACGAGAGAAACACACGUUGUGGUAUAUUACCUGGUA	0.122
GUCCUCUUUCACGUGCGCGUGAAAGAGACAAGUGAACUAGAGAAACACACGUUGUGGUAUAUUACCUGGUA	0.145
GUCCUCUUUCACGUGCGCGUGAAAGAGACAAGUGAACCAGAGAAACACACGUUGUGGUAUACUACCUGGUA	0.113
GUCCUCUUUCACGUGCGCGUGAAAGAGAAAAGUGAACCAGAUAAACACACGUUGUGGUAUAUUACCUGGUA	0.197
GUCCUCUUUCACGUGCGCGUGAAAGAGAAAAGUGAACCAGACAAACACACGUUGUGGUAUAUUACCUGGUA	0.0675
GUCCUCUUUCACGUGCGCGUGAAAGAGACAAGUGAACCAGAGAAACACACGUUGUGGUAUAUUACGUGGUA	0.137
GUCCUCUUUCACGUGCGCGUGAAAGAGACAAGUGAACCAGAGAAACACACGUUGUGGUAUAUUACAUGGUA	0.182
GUCCUCUUUCACGUGCGCGUGAAAGAGACAAGUGAACCAGAGAAACACACGUUGUGGUAUAUUACUUGGUA	0.135
GUCCUCUUUCACGUGCGCGUGAAAGAGAAAAGUGAACCAGAGAAACACACGUUGUGGUAUACUACCUGGUA	0.0819
GUCCUCUUUCACGUGCGCGUGAAAGAGACAAGUGAACCAGUGAAACACACGUUGUGGUAUAUUACCUGGUA	0.103
GUCCUCUUUCACGUGCGCGUGAAAGAGAUAAGUGAACCAGAGAAACGCACGUUGUGGUAUAUUACCUGGUA	0.0517
GUCCUCUUUCACGUGCGCGUGAAAGAGACAAGUGAACCAGACAAACACACGUUGUGGUAUAUUACCUGGUA	0.142
GUCCUCUUUCACGUGCGCGUGAAAGAGACAAGUGAACCAGAGAACCACACGUUGUGGUAUAUUACCUGGUA	0.207
GUCCUCUUUCACGUGCGCGUGAAAGAGACAAGUGAAGCAGAGAAACACACGUUGUGGUAUAUUACCUGGUA	0.084
GUCCUCUUUCACGUGCGCGUGAAAGAGACAAGUGAAACAGAGAAACACACGUUGUGGUAUAUUACCUGGUA	0.14
GUCCUCUUUCACGUGCGCGUGAAAGAGACAGGUGAACCAGAGAAACACACGUUGUGGUAUAUUACCUGGUA	0.187
GUCCUCUUUCACGUGCGCGUGAAAGAGAAAAGUAAACCAGAGAAACACACGUUGUGGUAUAUUACCUGGUA	0.201
GUCCUCUUUCACGUGCGCGUGAAAGAGAAAAGUGAACCAGAGAAACACACUUUGUGGUAUAUUACCUGGUA	0.0861
GUCCUCUUUCACGUGCGCGUGAAAGAGAAAAGUGAACCAGAGAAACACACAUUGUGGUAUAUUACCUGGUA	0.138

Variant	self-cleavage
GUCCUCUUUCACGUGCGCGUGAAAGAGACAAGUGAACCAGAGAAACACACGUUGUGGUAUAUUACCUCGUA	0.124
GUCCUCUUUCACGUGCGCGUGAAAGAGACAAGUGAACCAGAGUAACACACGUUGUGGUAUAUUACCUGGUA	0.0794
GUCCUCUUUCACGUGCGCGUGAAAGAGAUAAGUGCACCAGAGAAACACACGUUGUGGUAUAUUACCUGGUA	0.11
GUCCUCUUUCACGUGCGCGUGAAAGAGAUAAGUGGACCAGAGAAACACACGUUGUGGUAUAUUACCUGGUA	0.137
GUCCUCUUUCACGUGCGCGUGAAAGAGACAAGUGAACCAGAGAAACACACGUUGUGGUAUAUUACCUGGUU	0.21
GUCCUCUUUCACGUGCGCGUGAAAGAGACAAGUGAACCAGAGAAACACACGUCGUGGUAUAUUACCUGGUA	0.252
GUCCUCUUUCACGUGCGCGUGAAAGAGAAAAGUGAACCAGAGAAACACACGUUAUGGUAUAUUACCUGGUA	0.141
GUCCUCUUUCACGUGCGCGUGAAAGAGAAAAGUGAACCAGAGAAACACACGUUGUGGUAGAUUACCUGGUA	0.0375
GUCCUCUUUCACGUGCGCGUGAAAGAGAAAAGUGAACCAGAGAAACACACGUUGUGGUACAUUACCUGGUA	0.144
GUCCUCUUUCACGUGCGCGUGAAAGAGAAAAGUGAACCAGAGAAACACACGUUGUGGUAAAUUACCUGGUA	0.137
GUCCUCUUUCACGUGCGCGUGAAAGAGAUAAGUGAUCCAGAGAAACACACGUUGUGGUAUAUUACCUGGUA	0.104
GUCCUCUUUCACGUGCGCGUGAAAGAGAAAAGUGAACCAGAGAAACACACGCUGUGGUAUAUUACCUGGUA	0.156
GUCCUCUUUCACGUGCGCGUGAAAGAGAAAAGUGAACCAGAGAAACACACGUGGUGGUAUAUUACCUGGUA	0.0705
GUCCUCUUUCACGUGCGCGUGAAAGAGAAAAGUGAACCAGAGAAACACACGUCGUGGUAUAUUACCUGGUA	0.234
GUCCUCUUUCACGUGCGCGUGAAAGAGACAAGUGAACCAGAGAAACACACGUUGUGCUAUAUUACCUGGUA	0.131
GUCCUCUUUCACGUGCGCGUGAAAGAGACAAGUGAACCAGAGAAACACACGUUUUGGUAUAUUACCUGGUA	0.162
GUCCUCUUUCACGUGCGCGUGAAAGAGAUCAGUGAACCAGAGAAACACACGUUGUGGUAUAUUACCUGGUA	0.154
GUCCUCUUUCACGUGCGCGUGAAAGAGACAAGUGAACCAGAGAAACACACGUUGUGGUAUAUUACCUGGCA	0.133
GUCCUCUUUCACGUGCGCGUGAAAGAGACAAGUGAACCAGAGAAACACACGUUGUGGUAUAUUUCCUGGUA	0.192
GUCCUCUUUCACGUGCGCGUGAAAGAGAAAAGUGAACCAAAGAAACACACGUUGUGGUAUAUUACCUGGUA	0.133
GUCCUCUUUCACGUGCGCGUGAAAGAGACAAGUGAACCAGAGAAACACACGUUGUGGUAUAUUACCGGGUA	0.12
GUCCUCUUUCACGUGCGCGUGAAAGAGACAAGUGAACCAGAGAAACACACGUUGUGGUAUAUUACCUGGUA	0.133
GUCCUCUUUCACGUGCGCGUGAAAGAGAUAAGUGAACCAGAGAAACACACGUUGUGGUAUAUUACCUGGUA	0.132
GUCCUCUUUCACGUGCGCGUGAAAGAGACAAGUGAACCAGAGAAACACACGUUGUUGUAUAUUACCUGGUA	0.0807
